Experimental findings from publication PMC7968997 are described below.

Where a chain is given by its changes, count along the chain named.

Common to all, as to assay: fluorescence polarization
In one data set the target is T1, RRM2 analog Y165A (Homo sapiens, UniProt Q8IUH3 23-202, F29A;F70A;Y165A).
T1 sequence: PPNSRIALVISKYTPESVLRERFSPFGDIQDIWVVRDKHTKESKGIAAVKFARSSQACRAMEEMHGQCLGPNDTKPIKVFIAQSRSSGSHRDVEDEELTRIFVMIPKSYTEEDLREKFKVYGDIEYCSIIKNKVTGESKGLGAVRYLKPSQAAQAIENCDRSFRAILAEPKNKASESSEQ

Another data set addresses T2, RRM1 analog F70A (Homo sapiens, UniProt Q8IUH3 23-202, F70A;F124A;Y165A).
T2 sequence: T1 sequence with A7F, F102A

A further data set deals with T3, RRM1 analog R27A (Homo sapiens, UniProt Q8IUH3 23-202, R27A;F124A;Y165A).
T3 sequence: T1 sequence with R5A, A7F, A48F, F102A

The target of a further data set is T4, RRM1 analog D53A (Homo sapiens, UniProt Q8IUH3 23-202, D53A;F124A;Y165A).
T4 sequence: T1 sequence with A7F, D31A, A48F, F102A

The next data set has as its target T5, RRM1 analog D114A (Homo sapiens, UniProt Q8IUH3 23-202, D114A;F124A;Y165A).
T5 sequence: T1 sequence with A7F, A48F, D92A, F102A

Another data set concerns the target T6, RRM1 analog W55A (Homo sapiens, UniProt Q8IUH3 23-202, W55A;F124A;Y165A).
T6 sequence: T1 sequence with A7F, W33A, A48F, F102A

Data set [1] has as its target T7, RBM45 RRM1-2 F124A/Y165A (RRM1 analog) (Homo sapiens, UniProt Q8IUH3 23-202, F124A;Y165A).
T7 sequence: T1 sequence with A7F, A48F, F102A

In data set [2] the target is T8, RBM45 RRM1-2 quadruple mutant (Homo sapiens, UniProt Q8IUH3 23-202, F29A;F70A;F124A;Y165A).
T8 sequence: T1 sequence with F102A

For the molecule GGACGG (ssRNA) [GGACGG RNA], the Kd (usually the equilibrium constant for the complex coming apart) with RRM2 analog Y165A amounted to 20.4 µM; with RRM1 analog F70A, 16.8 µM; with RRM1 analog R27A it was 14.4 µM; with RRM1 analog D53A, 1.99 µM; with RRM1 analog D114A it was 1.13 µM; with RRM1 analog W55A it was 3.54 µM. In data set [1], this molecule came in with a Kd of 0.788 ± 0.092 µM. Further, the binding signal in data set [2] was approximately 150 fold decrease vs WT.
